The source of these data is the supplement of paper PMC10724198.

± gives the standard deviation of the averaged measurements.
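Further: PSI is a weighted mean of sequencing reads over stability bins, variants kept only with over 10 reads, mCherry proximal and sfGFP distal, peptide attached via GGGS linker.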

In the data set the test system is Saccharomyces cerevisiae. Description: protein stability index of tFT-peptide fusion (C-terminal peptide) (PSI (0-1 scale)); higher = more stable (slower turnover). To be noted: genetic background: wild type; temperature: 30 C.
Regarding LFKRTWRVEGFG, the protein stability index amounted to 0.705 ± 0.094.
The result for LFLDSTSTLPAP reads 0.662 ± 0.028; that for LFPFPSPLPPPL, 0.766 ± 0.0092; that for LFPPFPPFSFSP, 0.798 ± 0.045.
Under LFPPRVSLPSHT stands 0.663 ± 0.13; under LFPSPFVASFPP, 0.765 ± 0.055; under LFSCLHCLFSCQ, 0.616 ± 0.091.
The result for LFSDAWVLTDWW reads 0.753 ± 0.044; that for LFSDLCRVAWSL, 0.615 ± 0.021; that for LFSPTFPTIYYA, 0.759 ± 0.059.
For LFSSFFSAAFAS, the protein stability index amounted to 0.677 ± 0.064.
The result for LFTGPPPSPPPP reads 0.699 ± 0.034.
For the sequence LFTLSGAPLALP, the protein stability index amounted to 0.729 ± 0.015.
The result for LFVCVFRPWLGG reads 0.766 ± 0.09; that for LFVGSSPPPSPP, 0.643 ± 0.046.
LGACAGSGFKGV yielded a protein stability index of 0.713 ± 0.033.
Sequence LGCCVFGFVFPS returned a protein stability index of 0.672 ± 0.047.
Regarding LGCDDWIDWSRG, the protein stability index was found to be 0.694 ± 0.054.
In the case of LGFFGGGRWAGG, the protein stability index was 0.717 ± 0.025.
Regarding LGGGAGKRVCEG, the protein stability index is 0.685 ± 0.014.
Under LGGGGGGGGRLR stands 0.618 ± 0.0091; under LGGGGGLTAAGV, 0.743 ± 0.016.
In turn, LGGGVLDVRGQL came in with a protein stability index of 0.711 ± 0.011.
Under LGGHLFPLGPRR stands 0.664 ± 0.007.
In turn, LGGVKATGLGQL showed a protein stability index of 0.686 ± 0.04.
LGGVLVGDWVGI yielded a protein stability index of 0.7125 ± 0.0042.
In turn, LGGVRWNPGCRG had a protein stability index of 0.661 ± 0.047.
Sequence LGLGIWDCFCVL yielded a protein stability index of 0.685 ± 0.018.
The result for LGLGPKNLSYSE reads 0.676 ± 0.043; that for LGLLVLARFSPL, 0.7076 ± 0.0053; that for LGRGGVAWGAWW, 0.836 ± 0.11.
Sequence LGSIKCKLSSGI had a protein stability index of 0.666 ± 0.052.
Consider LGSLSPRLPSLR, for which the protein stability index was determined as 0.672 ± 0.091.
Take LGTGKSGLCVWE: the protein stability index amounted to 0.665 ± 0.012.
As for LGVCVGFRLLWV, the protein stability index amounted to 0.579 ± 0.026.
As for LGVFNRMKHSKH, the protein stability index turned out to be 0.6702 ± 0.0029.
The sequence LGVSYAPLPFLS yielded a protein stability index of 0.65 ± 0.03.
Turning to LGWGRWFWGVRG, the protein stability index was determined as 0.653 ± 0.026.
The sequence LGYSYHGVASRG displayed a protein stability index of 0.698 ± 0.013.
Sequence LHCKRPTPLTDS gave a protein stability index of 0.657 ± 0.019.
LHGHFIRLIRIG gave a protein stability index of 0.477 ± 0.054.
With LHLGHAGQACPA, the protein stability index was 0.6277 ± 0.0022.
LHLPLPPLQLSL had a protein stability index of 0.697 ± 0.0072.
The sequence LHPGPPASPPPL registered a protein stability index of 0.7127 ± 0.0053.
The sequence LHPRCVLPHFRV gave a protein stability index of 0.627 ± 0.032.
Consider LICLTIHNEGSK, for which the protein stability index was determined as 0.583 ± 0.017.
Consider LIDKPNNGVWIS, for which the protein stability index stood at 0.587 ± 0.042.
In turn, LIDLLRQVNVLR displayed a protein stability index of 0.649 ± 0.0096.
For LIENVGDLETSR, the protein stability index amounted to 0.665 ± 0.059.
Under LIGALSDCGFLG stands 0.683 ± 0.031; under LIHSSCSCPWCD, 0.666 ± 0.011; under LIILKNKRKNKI, 0.704 ± 0.04.
As for LILFQYFYLPMT, the protein stability index came out at 0.517 ± 0.044.
Regarding LIPALPPPLPPP, the protein stability index amounted to 0.673 ± 0.0056.
Sequence LIPCFSPLPSPF yielded a protein stability index of 0.721 ± 0.018.
The result for LIPFAFVHPVFL reads 0.62 ± 0.048; that for LIQKQTGKKKKP, 0.7279 ± 0.0051.
For LIRGVVVGLDGD, the protein stability index amounted to 0.685 ± 0.021.
Turning to LIRIHPNGPKFM, the protein stability index amounted to 0.708 ± 0.083.
Under LIRYVPFSYVLV stands 0.599 ± 0.007; under LISLGTYLINGF, 0.6441 ± 0.0051.
As for LISLSHLSANQM, the protein stability index was 0.665 ± 0.012.
Sequence LISNEGASRWDL displayed a protein stability index of 0.625 ± 0.018.
Sequence LISRQFPNHGWT returned a protein stability index of 0.675 ± 0.044.
Sequence LITDSQWLSSLS registered a protein stability index of 0.731 ± 0.02.
Under LITGRGFGFVVV stands 0.674 ± 0.024.
With LIWRQEDGGPMT, the protein stability index was 0.747 ± 0.01.
The result for LKGSVGGVCHTC reads 0.709 ± 0.032; that for LKKIEPRKNDKI, 0.719 ± 0.025.
Regarding LKKKSHRIKRSI, the protein stability index was 0.58471 ± 0.00035.
Under LKMRIYEKNGKE stands 0.669 ± 0.049; under LLCIPFPTRSLI, 0.803 ± 0.28; under LLEGSFFCGNSS, 0.726 ± 0.037.
The result for LLFLLGTLYHPY reads 0.635 ± 0.11; that for LLFTFFFLLLFS, 0.527 ± 0.23; that for LLFTFLPFRTVR, 0.709 ± 0.044.
For the sequence LLGASIIGQFYL, the protein stability index came to 0.758 ± 0.011.
In turn, LLGDPGDFFPAS showed a protein stability index of 0.713 ± 0.028.
Regarding LLGLWSFLIPPS, the protein stability index is 0.677 ± 0.0023.
On to LLGRIASCKIWL, for which the protein stability index stood at 0.657 ± 0.019.
